Measurements taken from patent US10772928B2, “Modulation and detection of a neuronal alternative splicing regulatory network for treatment and diagnosis of neurological disorders” (The Governing Council of the University of Toronto, priority 2014, dated 2020).

T1: nSR100 (Mus musculus, UniProt Q8BKA3)
T1 construct: host or cells: mouse N2A cells
T1 sequence (Q8BKA3 1-608): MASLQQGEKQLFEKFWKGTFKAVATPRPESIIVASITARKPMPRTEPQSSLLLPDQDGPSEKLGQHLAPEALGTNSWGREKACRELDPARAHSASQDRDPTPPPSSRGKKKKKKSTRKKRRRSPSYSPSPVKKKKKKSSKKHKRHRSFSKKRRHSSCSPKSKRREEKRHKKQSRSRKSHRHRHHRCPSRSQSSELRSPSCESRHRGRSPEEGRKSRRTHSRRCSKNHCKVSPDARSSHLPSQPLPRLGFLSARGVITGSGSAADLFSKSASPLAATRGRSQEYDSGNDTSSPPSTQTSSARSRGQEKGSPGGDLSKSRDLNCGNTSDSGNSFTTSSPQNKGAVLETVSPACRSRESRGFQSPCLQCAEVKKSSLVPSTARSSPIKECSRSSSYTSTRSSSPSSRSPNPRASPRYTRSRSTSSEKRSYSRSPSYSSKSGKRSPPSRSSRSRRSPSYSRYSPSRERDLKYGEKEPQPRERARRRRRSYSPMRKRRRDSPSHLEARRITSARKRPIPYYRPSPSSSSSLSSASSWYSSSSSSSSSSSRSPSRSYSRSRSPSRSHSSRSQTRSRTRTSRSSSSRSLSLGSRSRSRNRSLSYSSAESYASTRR

B1: Csnk2a1 (protein, UniProt Q60737 1-391, looked up)
Casein kinase II subunit alpha: MSGPVPSRARVYTDVNTHRPREYWDYESHVVEWGNQDDYQLVRKLGRGKYSEVFEAINITNNEKVVVKILKPVKKKKIKREIKILENLRGGPNIITLADIVKDPVSRTPALVFEHVNNTDFKQLYQTLTDYDIRFYMYEILKALDYCHSMGIMHRDVKPHNVMIDHEHRKLRLIDWGLAEFYHPGQEYNVRVASRYFKGPELLVDYQMYDYSLDMWSLGCMLASMIFRKEPFFHGHDNYDQLVRIAKVLGTEDLYDYIDKYNIELDPRFNDILGRHSRKRWERFVHSENQHLVSPEALDFLDKLLRYDHQSRLTAREAMEHPYFYTVVKDQARMSSTSMAGGSTPVSSANMMSGISSVPTPSPLGPLAGSPVIAAANSLGIPVPAAAGAQQ
B2: U2af1 (protein, UniProt Q9D883 2-239, looked up)
Splicing factor U2AF 35 kDa …: AEYLASIFGTEKDKVNCSFYFKIGACRHGDRCSRLHNKPTFSQTIALLNIYRNPQNSSQSADGLRCAVSDVEMQEHYDEFFEEVFTEMEEKYGEVEEMNVCDNLGDHLVGNVYVKFRREEDAEKAVIDLNNRWFNGQPIHAELSPVTDFREACCRQYEMGECTRGGFCNFMHLKPISRELRRELYGRRRKKHRSRSRSRERRSRSRDRGRGGGGGGGGGGGRERDRRRSRDRERSGRF
B3: Ywhaq (protein, UniProt P68254 1-245, looked up)
14-3-3 protein theta: MEKTELIQKAKLAEQAERYDDMATCMKAVTEQGAELSNEERNLLSVAYKNVVGGRRSAWRVISSIEQKTDTSDKKLQLIKDYREKVESELRSICTTVLELLDKYLIANATNPESKVFYLKMKGDYFRYLAEVACGDDRKQTIENSQGAYQEAFDISKKEMQPTHPIRLGLALNFSVFYYEILNNPELACTLAKTAFDEAIAELDTLNEDSYKDSTLIMQLLRDNLTLWTSDSAGEECDAAEGAEN
B4: Ccnb1 (protein, UniProt P24860 1-430, looked up)
G2/mitotic-specific cyclin-B1: MALRVTRNTKINAENKAKVSMAGAKRVPVTVTAASKPGLRPRTALGDIGNKVSEELQARVPLKREAKTLGTGKGTVKALPKPVEKVPVCEPEVELAEPEPEPELEHVREEKLSPEPILVDNPSPSPMETSGCAPAEEYLCQAFSDVILAVSDVDADDGADPNLCSEYVKDIYAYLRQLEEEQSVRPKYLQGREVTGNMRAILIDWLIQVQMKFRLLQETMYMTVSIIDRFMQNSCVPKKMLQLVGVTAMFIASKYEEMYPPEIGDFAFVTNNTYTKHQIRQMEMKILRVLNFSLGRPLPLHFLRRASKVGEVDVEQHTLAKYLMELSMLDYDMVHFAPSQIAAGAFCLALKILDNGEWTPTLQHYLSYSEDSLLPVMQHLAKNVVMVNCGLTKHMTVKNKYAASKHAKISTLAQLNCTLVQNLSKAVTKA
B5: U2af2 (protein, UniProt P26369 2-475, looked up)
Splicing factor U2AF 65 kDa …: SDFDEFERQLNENKQERDKENRHRKRSHSRSRSRDRKRRSRSRDRRNRDQRSASRDRRRRSKPLTRGAKEEHGGLIRSPRHEKKKKVRKYWDVPPPGFEHITPMQYKAMQAAGQIPATALLPTMTPDGLAVTPTPVPVVGSQMTRQARRLYVGNIPFGITEEAMMDFFNAQMRLGGLTQAPGNPVLAVQINQDKNFAFLEFRSVDETTQAMAFDGIIFQGQSLKIRRPHDYQPLPGMSENPSVYVPGVVSTVVPDSAHKLFIGGLPNYLNDDQVKELLTSFGPLKAFNLVKDSATGLSKGYAFCEYVDINVTDQAIAGLNGMQLGDKKLLVQRASVGAKNATLVSLPSTINQTPVTLQVPGLMSSQVQMGGHPTEVLCLMNMVLPEELLDDEEYEEIVEDVRDECSKYGLVKSIEIPRPVDGVEVPGCGKIFVEFTSVFDCQKAMQGLTGRKFANRVVVTKYCDPDSYHRRDFW
B6: Luc7l2 (protein, UniProt Q7TNC4 1-392, looked up)
Putative RNA-binding protein …: MSAQAQMRAMLDQLMGTSRDGDTTRQRIKFSDDRVCKSHLLNCCPHDVLSGTRMDLGECLKVHDLALRADYEIASKEQDFFFELDAMDHLQSFIADCDRRTEVSKKRLAETQEEISAEVAAKAERVHELNEEIGKLLAKVEQLGAEGNVEESQKVMDEVEKARAKKREAEEVYRNSMPASSFQQQKLRVCEVCSAYLGLHDNDRRLADHFGGKLHLGFIEIREKLEELKRVVAEKQEKRNQERLKRREEREREEREKLRRSRSHSKNPKRSRSREHRRHRSRSMSRERKRRTRSKSREKRHRHRSRSSSRSRSRSHQRSRHSSRDRSRERSKRRSSKERFRDQDLASRDRDRSSRDRSPRDRDRKDKKRSYESANGRSEDRRSSEEREAGEI
B7: Csnk1d (protein, UniProt Q9DC28 1-415, looked up)
Casein kinase I isoform delta: MELRVGNRYRLGRKIGSGSFGDIYLGTDIAAGEEVAIKLECVKTKHPQLHIESKIYKMMQGGVGIPTIRWCGAEGDYNVMVMELLGPSLEDLFNFCSRKFSLKTVLLLADQMISRIEYIHSKNFIHRDVKPDNFLMGLGKKGNLVYIIDFGLAKKYRDARTHQHIPYRENKNLTGTARYASINTHLGIEQSRRDDLESLGYVLMYFNLGSLPWQGLKAATKRQKYERISEKKMSTPIEVLCKGYPSEFATYLNFCRSLRFDDKPDYSYLRQLFRNLFHRQGFSYDYVFDWNMLKFGASRAADDAERERRDREERLRHSRNPATRGLPSTASGRLRGTQEVAPPTPLTPTSHTANTSPRPVSGMERERKVSMRLHRGAPVNVSSSDLTGRQDTSRMSTSQIPGRVASSGLQSVVHR
B8: Acin1 (protein, UniProt Q9JIX8 1-1338, looked up)
Apoptotic chromatin …: MWGRKRPNSSGETRGILSGNRGVDYGSGRGQSGPFEGRWRKLPKMPEAVGTDPSTSRKMAELEEVTLDGKPLQALRVTDLKAALEQRGLAKSGQKSALVKRLKGALMLENLQKHSTPHAAFQPNSQIGEEMSQNSFIKQYLEKQQELLRQRLEREAREAAELEEASAESEDEMTHPEGVASLLPPDFQSSLNRPELELSTHSPRKSSSFSEEKGESDDEKPRKGERRSSRVRQAKSKLPEYSQTAEEEEDQETPSRNLRVRADRNLKIEEEEEEEEEEEDDDDEEEEEVDEAQKSREAEAPTLKQFEDEEGEERTRAKPEKVVDEKPLNIRSQEKGELEKGGRVTRSQEEARRSHLARQQQEKETQIVSLPQEENEVKSSQSLEEKSQSPSPPPLPEDLEKAPVVLQPEQIVSEEETPPPLLTKEASSPPTHIQLQEEMEPVEGPAPPVLIQLSPPNTDAGAREPLASPHPAQLLRSLSPLSGTTDTKAESPAGRVSDESVLPLAQKSSLPECSTQKGVESEREKSAPLPLTVEEFAPAKGITEEPMKKQSLEQKEGRRASHALFPEHSGKQSADSSSSRSSSPSSSSSPSRSPSPDSVASRPQSSPGSKQRDGAQARVHANPHERPKMGSRSTSESRSRSRSRSRSASSSSRKSLSPGVSRDSNTSYTETKDPSCGQEAAAPSGPQLQVLEPKEKAPTFSASVRGRHLSHPEPEQQHVIQRLQPEQGSPKKCEAEEAEPPAATQPQTSETQISHLLESERTHHTVEEKEEVTMDTSENRPENEVPEPPLPVADQVSNDERPEGGAEEEEKKESSMPKSFKRKISVVSATKGVQAGNSDTEGGQPGRKRRWGASTAATQKKPSISITTESLKSLIPDIKPLAGQEAVVDLHADDSRISEDETERNGDDGTHDKGLKICRTVTQVVPAEGQENGQREEEEEKEPEAELPAPPQVSVEVALPPPVEHEVKKVTLGDTLTRRSISQQKSGVSITIDDPVRTAQVPSPPRGKISNIVHISNLVRPFTLGQLKELLGRTGTLVEEAFWIDKIKSHCFVTYSTVEEAVATRTALHGVKWPQSNPKFLCADYAEQDELDYHRGLLVDRPSETKAEEQGAPRPLHPPPPPPVQPPPHPRAEQREQERAVREQWAEREREMERRERTRSEREWDRDKVREGPRSRSRSRDRRRKERAKSKEKKSEKKEKAQEEPPAKLLDDLFRKTKAAPCIYWLPLTESQIVQKEAEQAERAKEREKRRKEREEEEQKEREKEAERERNRQLEREKRREHSRERERDRERERDRGDRERERERDRDRGRERDRRDTKRHSRSRSRSTPVRDRGGRR

Target: T1, nSR100
Experiment: AP-MS nSR100 interaction partners from mouse N2A cells (Table 5)
Assay type: binding
Details: bait Srrm4
Excerpt: By applying affinity purification coupled to mass-spectrometry (AP-MS), several interaction nSR100 partner proteins were detected that provide insight into mechanisms of post-translational regulation of nSR100 levels.

AvgP (average of the SAINT scores) | MaxP (maximal SAINT score) | Molecule
1 | 1 | B1
1 | 1 | B2
1 | 1 | B3
1 | 1 | B4
1 | 1 | B5
1 | 1 | B6
1 | 1 | B7
1 | 1 | B8

Same assay, conditions: bait Srrm4, 0.1 added to prevent division by 0

FoldChange between the prey Avg spectra of the bait and control purifications | Molecule
4.95 | B1
4.6 | B2
180 | B3
300 | B4
4.83 | B5
4.33 | B6
55 | B7
250 | B8

Same assay, conditions: bait Srrm4, 2 replicates

AvgSpec (average number of spectra per replicate) | Molecule
49.5 | B1
23 | B2
18 | B3
30 | B4
111 | B5
39 | B6
5.5 | B7
25 | B8

Same assay, conditions: bait Srrm4, biological replicate 1 (first number of the cell), AP-MS

Spectra (number of spectra for the prey in the purification of the bait) | Molecule
44 | B1
22 | B2
15 | B3
27 | B4
108 | B5
35 | B6
7 | B7
23 | B8

Same assay, conditions: bait Srrm4, biological replicate 2 (second number of the cell), AP-MS

Spectra (number of spectra for the prey in the purification of the bait) | Molecule
55 | B1
24 | B2
21 | B3
33 | B4
114 | B5
43 | B6
4 | B7
27 | B8

Same assay, conditions: bait Srrm4, sum of spectra over 2 replicates

SpecSum | Molecule
99 | B1
46 | B2
36 | B3
60 | B4
222 | B5
78 | B6
11 | B7
50 | B8
